Molecular target: FITC-labeled alanine-extended version of the β2AR C-terminal peptide (TNDSLLA) (human)
Test: fluorescence polarisation

## SNX27 PDZ domain, wild type (residues 39-131 of rat SNX27) (from UniProt Q8K4V4 39-131) (domain or fragment)
  Kd: > 100 µM
